Results as given in the nanobody polyreactivity screen of Harvey et al. (2022).

Assay: yeast display, Sf9 membrane polyspecificity reagent, FACS + sequencing; frameworks hold sequencing errors
Procedure, shortened: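 After 36–48 hours of galactose induction, yeast (Saccharomyces cerevisiae BJ5465) displaying a synthetic nanobody library were stained at 4 °C for 1 hour with 10% biotinylated, detergent-solubilized Sf9 membrane reagent. Streptavidin microbeads enriched the stained cells before FACS sorting into low and high (top ~1%) gates on anti-HA and streptavidin fluorescence. Each clone's polyreactivity label reflects its gate of origin.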

Row | Sequence | polyreactivity (PSR sort gate)
1 | QVQVVQSGGGLVQAGGSLSLSCAASGNTFYGYAMGWYRQAPGNESEFVASITLSGDSTYYADSVKGRFTISRDNAQNTVYLQMNSLKPEDTAVYYCAGVYTYPLGYYHYTYDYWGQGTQVTVSS | low polyreactivity
2 | QVRLVESGGGLDQAGGSLPLSCAASGRTFEPNAMGWYRQAPGKERELVAAITSAGITHYADSVKGRFTISRDNAKNTVYLQMNSLKPEDTAVYYCRLQTGIIDRLRRYNYWGQGTQVTVSS | high polyreactivity
3 | QVRLVESGGGLVKAGGSLRLSSAASGSTFWSYAMGCYRQATGKERELVAAISWSGDSTYYADSVKGRFTISRDNAKNTVYLQMNSLKPEDTAVYYCAADYVGGSYEYEYWGQGTQVTVSS | low polyreactivity
4 | QVRLVESGGGLVQAGGSLRLSCAASAFTFDSYAMGWNRQAPGKERELVAAITWSGGSTYYADSVKGRFTISRDIAKNTVYFQMNSLKPEDTAVYYCNVDRYDGDYCGQGTQVTVSS | high polyreactivity
5 | QVRLVESGGGLVQAGGSLRLSCAASGFIFWRNAMGWYRQAPGKERELVAAITSGGSTNYADSVKGRFTISRDNAKNTVYLQMNSLKPVDTAVYYCAARQWFSHRRWGGSRYDYWGQGTQVTVSS | low polyreactivity
6 | QVRLVESGGGLVQAGRSLRLSCAASGRIFWNYAMGWYRQAPGKERELVATIDKSGGSTRYADSVKGRFTISRDTAKNTVYLQMNSLKPEDTAVYYCAARGPASRGFRGARSGLTFDYWGQGTQVTVSS | low polyreactivity
7 | QYQLVESGGGLVQAGGSLRLSCAASGFIFSTNAMGWYRQAPGKERELVAAISRRGGNTYYADSLKGRFTISRDNAKNTVYLQMNSLKPEDTAVYYCAKRGVYGYRYYYWGQGTQVTVSS | high polyreactivity
8 | QYQLVESGGGLVQAGRTLRLSWAASGRIFVRYVMGCYRQAPVKERELVAAISSSGGSTYYADSVKGRFTISRDNAKNWVYLQIYSLKPEDTAVYYCATDFMDKYILPYDYWGQGTQVTVSS | low polyreactivity
